The target of data set [1] is T1, MAX:MAX (p21) (human, UniProt P61244-2 1-151). Kind of data set: EMSA; EMSA: 10 ul, 0.5 pmol probe, 80 ng poly(dA-dT):(dA-dT), 375 ng/ul BSA, 15 mM Tris-HCl pH 7.9, 100 mM KCl, 15% glycerol, 0.15 mM EDTA, 0.075% NP-40, 7.5 mM 2-mer. The conditions noted are these: protein: recombinant; tags: 6xHis; chain copies: 2; label: 32P (Klenow fill-in with [alpha-32P]dGTP) as probe; annealed complementary oligos; probe Klenow-filled. For orientation: A gel shift assay detects complexes by their altered migration in electrophoresis.
T1 sequence (P61244 other isoform, or with tags, fused parts or gaps): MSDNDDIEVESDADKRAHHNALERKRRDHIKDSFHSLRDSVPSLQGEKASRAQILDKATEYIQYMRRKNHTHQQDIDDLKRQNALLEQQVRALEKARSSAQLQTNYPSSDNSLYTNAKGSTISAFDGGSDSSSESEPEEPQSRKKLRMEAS

Data set [2] has as its target T2, MYC (p64);MAX (p21), in MYC:MAX (human;human, UniProt P01106-1;P61244-2 1-439;1-151, |). The data set is described as above. The conditions noted are these: protein: recombinant;recombinant; tags: 6xHis;6xHis; copies: 1;1; label: 32P (Klenow fill-in with [alpha-32P]dGTP) as probe; annealed complementary oligos; probe Klenow-filled.
For data set [3], the target named is T1, MAX:MAX (p21). Nature of the data set: competition; labeled CME probe; EMSA: 10 ul, 0.5 pmol probe, 80 ng poly(dA-dT):(dA-dT), 375 ng/ul BSA, 15 mM Tris-HCl pH 7.9, 100 mM KCl, 15% glycerol, 0.15 mM EDTA, 0.075% NP-40, 7.5 mM 2-mer. As to conditions: protein: recombinant; tags: 6xHis; chain copies: 2; annealed complementary oligos.
The target of data set [4] is T1, MAX:MAX (p21). Kind of data set: competition; labeled CME probe; stronger than NE; EMSA: 10 ul, 0.5 pmol probe, 80 ng poly(dA-dT):(dA-dT), 375 ng/ul BSA, 15 mM Tris-HCl pH 7.9, 100 mM KCl, 15% glycerol, 0.15 mM EDTA, 0.075% NP-40, 7.5 mM 2-mer. The conditions noted are these: protein: recombinant; tags: 6xHis; chain copies: 2; annealed complementary oligos.
In data set [5] the target is T1, MAX:MAX (p21). Kind of data set: EMSA competition; EMSA: 10 ul, 0.5 pmol probe, 80 ng poly(dA-dT):(dA-dT), 375 ng/ul BSA, 15 mM Tris-HCl pH 7.9, 100 mM KCl, 15% glycerol, 0.15 mM EDTA, 0.075% NP-40, 7.5 mM 2-mer. As to conditions: protein: recombinant; tags: 6xHis; chain copies: 2; label: 32P (Klenow fill-in with [alpha-32P]dGTP) as probe; annealed complementary oligos; probe Klenow-filled.

The target in data set [6] is T2, MYC (p64);MAX (p21), in MYC:MAX. Described as above. The conditions noted are these: protein: recombinant;recombinant; tags: 6xHis;6xHis; copies: 1;1; label: 32P (Klenow fill-in with [alpha-32P]dGTP) as probe; annealed complementary oligos; probe Klenow-filled.

T2 sequence (P01106 16-454, chain 1 of 2): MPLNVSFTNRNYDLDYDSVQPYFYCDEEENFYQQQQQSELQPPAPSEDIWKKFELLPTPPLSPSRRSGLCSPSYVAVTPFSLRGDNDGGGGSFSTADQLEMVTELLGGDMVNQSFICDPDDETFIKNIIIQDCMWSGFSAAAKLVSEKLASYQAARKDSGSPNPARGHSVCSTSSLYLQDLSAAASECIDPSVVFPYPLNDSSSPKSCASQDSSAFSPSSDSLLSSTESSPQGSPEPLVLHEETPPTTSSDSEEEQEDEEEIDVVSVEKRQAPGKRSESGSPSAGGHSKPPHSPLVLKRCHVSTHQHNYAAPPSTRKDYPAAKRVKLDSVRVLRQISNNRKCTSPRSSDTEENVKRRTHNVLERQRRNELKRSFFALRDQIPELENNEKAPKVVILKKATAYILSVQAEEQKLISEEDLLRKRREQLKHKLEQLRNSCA
T2 sequence (P61244 other isoform, or with tags, fused parts or gaps |, chain 2 of 2): as the sequence (P61244 other isoform, or with tags, fused parts or gaps) above

B1: CME (dsDNA)
DNA 1: CCGGCTGACACGTGGTATTAATAG
DNA 2: CTATTAATACCACGTGTCAGCCGG
In the case of B1, the binding result (with MAX:MAX (p21) [1]; in data set [2]) was “binds” each time.

B2: NE-V3 (dsDNA)
DNA 1: CCGGCTGATACGTAGTATTAATAG
DNA 2: CTATTAATACTACGTATCAGCCGG
On to B2, for which, in the data set with MAX:MAX (p21) [3], the binding result is “no binding”.

B3: NE-V1 (dsDNA)
DNA 1: CCGGCTGATACGTTGTATTAATAG
DNA 2: CTATTAATACAACGTATCAGCCGG
As for B3, in the data set with MAX:MAX (p21) [3], the binding result was “no binding”.

B4: Ctrl (dsDNA)
DNA 1: CCGGCTGATTAGCAGTATTAATAG
DNA 2: CTATTAATACTGCTAATCAGCCGG
In the case of B4, the binding result (with MAX:MAX (p21) [1]; in data set [2]) was “no binding” throughout.

B5: E-V1 (dsDNA)
DNA 1: CCGGCTGACACGTTGTATTAATAG
DNA 2: CTATTAATACAACGTGTCAGCCGG
As to B5, in the data set with MAX:MAX (p21) [4], the binding result was “binds”.

B6: NE-V4 (dsDNA)
DNA 1: CCGGCTGAAAGCTTGTATTAATAG
DNA 2: CTATTAATACAAGCTTTCAGCCGG
Consider B6, for which the binding result with MAX:MAX (p21) [3] is “no binding”.

B7: NE (dsDNA)
DNA 1: CCGGCTGAAACGTTGTATTAATAG
DNA 2: CTATTAATACAACGTTTCAGCCGG
On to B7, for which the binding signal in the data set with MAX:MAX (p21) [5] was ~33 fold lower affinity than CME; in data set [6], ~20 fold lower affinity than CME.

B8: NE-V2 (dsDNA)
DNA 1: CCGGCTGAGACGTTGTATTAATAG
DNA 2: CTATTAATACAACGTCTCAGCCGG
Take B8: the binding result in the data set with MAX:MAX (p21) [3] is “no binding”.

The values are drawn from PMC5515408, “Sequence-specific DNA binding by MYC/MAX to low-affinity non-E-box motifs”.
